In US20170089895A1:
One block for each substance: values may come before it.

Experiments:
[1] = target: Purified HNA-5a protein (CD11a) (human) (UniProt P20701); assay: Luminex bead assay, protein on microbeads; reference, 1 by definition
[2] = target: Purified HNA-4a protein (CD11b) (human) (UniProt P11215); assay: as above
[3] = target: Purified HNA-5a protein (CD11a) (human) (UniProt P20701); assay: Luminex bead assay, protein on microbeads; ratio to negative mouse IgG; 6 tests
[4] = target: Purified HNA-4a protein (CD11b) (human) (UniProt P11215); assay: as above
[5] = target: HNA-1a W131F modified protein (human) (UniProt O75015); assay: Luminex bead assay, protein on microbeads, neat negative serum, PE goat anti-human IgG; non-specific IgG background
[6] = target: wild type HNA-1a protein (Fc gamma receptor type IIIb, FcγRIIIb, CD16b) (human) (UniProt O75015); assay: as above
[7] = target: HNA-1a K138T modified protein (human) (UniProt O75015); assay: as above
[8] = target: HNA-1a L136A modified protein (human) (UniProt O75015); assay: as above
[9] = target: wild type HNA-1b protein (Fc gamma receptor type IIIb, FcγRIIIb, CD16b) (human) (UniProt O75015); assay: Luminex bead assay, protein on microbeads, negative serum, PE goat anti-human IgG; non-specific IgG background
[10] = target: HNA-1b L136A modified protein (human) (UniProt O75015); assay: as above
[11] = target: wild type HNA-1c protein (Fc gamma receptor type IIIb, FcγRIIIb, CD16b) (human) (UniProt O75015); assay: as above
[12] = target: HNA-1c W131F modified protein (human) (UniProt O75015); assay: as above
[13] = target: HNA-1c L136A modified protein (human) (UniProt O75015); assay: as above
[14] = target: HNA-1c K138T modified protein (human) (UniProt O75015); assay: as above
[15] = target: HNA-1b W131F modified protein (human) (UniProt O75015); assay: as above
[16] = target: HNA-1b K138T modified protein (human) (UniProt O75015); assay: as above
[17] = target: wild type HNA-1b protein (Fc gamma receptor type IIIb, FcγRIIIb, CD16b) (human) (UniProt O75015); assay: Luminex bead assay, protein on microbeads, PE goat anti-human IgG; reference, 1 by definition
[18] = target: HNA-1a W131F modified protein (human) (UniProt O75015); assay: as above
[19] = target: HNA-1b L136A modified protein (human) (UniProt O75015); assay: as above
[20] = target: wild type HNA-1c protein (Fc gamma receptor type IIIb, FcγRIIIb, CD16b) (human) (UniProt O75015); assay: as above
[21] = target: Purified HNA-2 protein (CD177) (human) (UniProt Q8N6Q3); assay: as above
Chain of UniProt Q8N6Q3 (Q8N6Q3 22-408 limits assumed): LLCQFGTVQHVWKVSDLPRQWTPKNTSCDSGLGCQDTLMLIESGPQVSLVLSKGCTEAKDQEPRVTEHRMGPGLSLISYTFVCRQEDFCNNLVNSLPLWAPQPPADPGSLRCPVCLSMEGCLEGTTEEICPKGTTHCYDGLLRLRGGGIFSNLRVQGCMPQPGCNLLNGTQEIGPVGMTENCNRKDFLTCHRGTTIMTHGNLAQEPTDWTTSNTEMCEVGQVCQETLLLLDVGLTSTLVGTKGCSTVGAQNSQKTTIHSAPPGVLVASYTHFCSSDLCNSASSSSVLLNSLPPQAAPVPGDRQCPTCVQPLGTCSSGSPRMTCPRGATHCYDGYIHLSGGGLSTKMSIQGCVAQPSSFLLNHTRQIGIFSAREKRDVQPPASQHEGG

[22] = target: HNA-1c W131F modified protein (human) (UniProt O75015); assay: as above
[23] = target: wild type HNA-1a protein (Fc gamma receptor type IIIb, FcγRIIIb, CD16b) (human) (UniProt O75015); assay: as above
[24] = target: Purified HNA-3a protein (CTL2) (human) (UniProt Q8IWA5); assay: as above
Chain of UniProt Q8IWA5 (Q8IWA5 whole entry): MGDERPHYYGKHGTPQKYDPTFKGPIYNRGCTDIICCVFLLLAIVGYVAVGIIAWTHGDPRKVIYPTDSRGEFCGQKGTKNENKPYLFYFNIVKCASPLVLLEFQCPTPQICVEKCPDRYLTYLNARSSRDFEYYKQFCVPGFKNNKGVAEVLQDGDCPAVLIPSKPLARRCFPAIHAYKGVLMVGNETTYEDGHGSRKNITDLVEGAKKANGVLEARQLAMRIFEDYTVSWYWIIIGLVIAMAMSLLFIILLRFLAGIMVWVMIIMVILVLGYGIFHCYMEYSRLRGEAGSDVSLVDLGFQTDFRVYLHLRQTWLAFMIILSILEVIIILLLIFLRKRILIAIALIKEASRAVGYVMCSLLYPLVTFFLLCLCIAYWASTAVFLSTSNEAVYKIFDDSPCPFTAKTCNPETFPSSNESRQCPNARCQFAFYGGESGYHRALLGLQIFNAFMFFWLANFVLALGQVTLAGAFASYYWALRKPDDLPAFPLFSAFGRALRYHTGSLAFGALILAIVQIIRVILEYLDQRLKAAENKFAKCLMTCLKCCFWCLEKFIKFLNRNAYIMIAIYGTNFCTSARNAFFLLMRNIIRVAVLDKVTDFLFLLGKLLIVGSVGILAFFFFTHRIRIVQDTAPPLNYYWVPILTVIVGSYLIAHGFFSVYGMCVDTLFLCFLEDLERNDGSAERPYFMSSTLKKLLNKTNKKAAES

[25] = target: HNA-1a K138T modified protein (human) (UniProt O75015); assay: as above
[26] = target: HNA-1c L136A modified protein (human) (UniProt O75015); assay: as above
[27] = target: HNA-1c K138T modified protein (human) (UniProt O75015); assay: as above
[28] = target: HNA-1b W131F modified protein (human) (UniProt O75015); assay: as above
[29] = target: HNA-1b K138T modified protein (human) (UniProt O75015); assay: as above
[30] = target: HNA-1a L136A modified protein (human) (UniProt O75015); assay: as above

Chain of UniProt P20701 (P20701 26-1170 limits assumed): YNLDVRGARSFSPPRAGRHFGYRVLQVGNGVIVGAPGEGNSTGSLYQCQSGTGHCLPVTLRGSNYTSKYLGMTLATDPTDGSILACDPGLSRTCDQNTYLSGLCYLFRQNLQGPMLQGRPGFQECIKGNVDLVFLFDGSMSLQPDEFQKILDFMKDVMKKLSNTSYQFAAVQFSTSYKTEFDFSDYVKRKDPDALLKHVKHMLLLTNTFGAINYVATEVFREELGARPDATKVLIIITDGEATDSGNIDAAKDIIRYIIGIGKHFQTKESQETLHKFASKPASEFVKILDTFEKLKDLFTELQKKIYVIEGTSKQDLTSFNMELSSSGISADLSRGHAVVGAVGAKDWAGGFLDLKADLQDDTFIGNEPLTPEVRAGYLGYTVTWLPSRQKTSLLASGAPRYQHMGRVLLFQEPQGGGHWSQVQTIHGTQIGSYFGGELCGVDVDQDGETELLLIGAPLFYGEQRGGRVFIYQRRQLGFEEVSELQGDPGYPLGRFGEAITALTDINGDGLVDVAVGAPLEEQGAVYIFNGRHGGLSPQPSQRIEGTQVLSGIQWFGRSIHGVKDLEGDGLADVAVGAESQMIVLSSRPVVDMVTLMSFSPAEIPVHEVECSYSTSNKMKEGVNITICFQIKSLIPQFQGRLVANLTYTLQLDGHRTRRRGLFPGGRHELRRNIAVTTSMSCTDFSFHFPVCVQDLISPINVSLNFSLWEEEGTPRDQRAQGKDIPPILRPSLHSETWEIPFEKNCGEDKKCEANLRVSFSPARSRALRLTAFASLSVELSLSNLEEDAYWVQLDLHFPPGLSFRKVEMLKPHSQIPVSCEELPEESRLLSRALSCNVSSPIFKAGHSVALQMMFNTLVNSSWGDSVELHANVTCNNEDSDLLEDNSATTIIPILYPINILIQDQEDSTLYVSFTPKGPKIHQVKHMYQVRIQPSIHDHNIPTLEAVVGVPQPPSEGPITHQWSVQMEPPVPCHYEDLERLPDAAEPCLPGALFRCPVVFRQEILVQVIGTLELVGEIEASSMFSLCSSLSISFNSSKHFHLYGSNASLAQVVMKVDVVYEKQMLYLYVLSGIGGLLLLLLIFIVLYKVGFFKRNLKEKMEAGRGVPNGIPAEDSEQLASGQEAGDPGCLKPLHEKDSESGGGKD

detection ratio [1]: 1 fold
detection ratio [2]: 1 fold
Substance: Negative mouse IgG (antibody)

detection ratio [3]: 3 fold
detection ratio [4]: 594 fold
Substance: Positive mouse IgG (#ICRF44) (antibody)

detection ratio [3]: 5 fold
detection ratio [4]: 543 fold
Substance: Positive mouse IgG (#TS1/18) (antibody)

Background Value (MFI) [5]: 417 MFI
Background Value (MFI) [6]: 1910 MFI
Background Value (MFI) [7]: 450 MFI
Background Value (MFI) [8]: 290 MFI
Background Value (MFI) [9]: 1970 MFI
Background Value (MFI) [10]: 277 MFI
Background Value (MFI) [11]: 1500 MFI
Background Value (MFI) [12]: 181 MFI
Background Value (MFI) [13]: 209 MFI
Background Value (MFI) [14]: 126 MFI
Background Value (MFI) [15]: 183 MFI
Background Value (MFI) [16]: 187 MFI
Fold Increased Ratio Against Negative Sera [17]: 1 fold
Fold Increased Ratio Against Negative Sera [18]: 1 fold
Fold Increased Ratio Against Negative Sera [19]: 1 fold
Fold Increased Ratio Against Negative Sera [20]: 1 fold
detection ratio [21]: 1 fold
Fold Increased Ratio Against Negative Sera [22]: 1 fold
Fold Increased Ratio Against Negative Sera [23]: 1 fold
detection ratio [24]: 1 fold
Fold Increased Ratio Against Negative Sera [25]: 1 fold
Fold Increased Ratio Against Negative Sera [26]: 1 fold
Fold Increased Ratio Against Negative Sera [27]: 1 fold
Fold Increased Ratio Against Negative Sera [28]: 1 fold
Fold Increased Ratio Against Negative Sera [29]: 1 fold
Fold Increased Ratio Against Negative Sera [30]: 1 fold
Substance: Negative Sera (#LSNC) (antibody)
